Experiments:
[1] = biological target: T1, RbAp46 (pRB-associated protein p46), human, recombinant (human, UniProt Q16576 1-411); experiment: other fluorescence titration; intrinsic tryptophan fluorescence of 45 nM RbAp46, increasing H3/H4 or H4 peptide (16-41); 50 mM Tris-HCl (pH 7.5), 200 mM NaCl, 5 mM DTT, 25°C; excitation 295 nm, emission 435 nm; single binding-site model; KD for H3/H4 called apparent; conditions: both partners purified
T1 construct: RbAp46 (RBBP7), human; also called RBBP7; RbAb46; source: recombinant, expressed and purified as described previously (Verreault et al., 1998; Berger et al., 2004)
T1 sequence (Q16576 1-411): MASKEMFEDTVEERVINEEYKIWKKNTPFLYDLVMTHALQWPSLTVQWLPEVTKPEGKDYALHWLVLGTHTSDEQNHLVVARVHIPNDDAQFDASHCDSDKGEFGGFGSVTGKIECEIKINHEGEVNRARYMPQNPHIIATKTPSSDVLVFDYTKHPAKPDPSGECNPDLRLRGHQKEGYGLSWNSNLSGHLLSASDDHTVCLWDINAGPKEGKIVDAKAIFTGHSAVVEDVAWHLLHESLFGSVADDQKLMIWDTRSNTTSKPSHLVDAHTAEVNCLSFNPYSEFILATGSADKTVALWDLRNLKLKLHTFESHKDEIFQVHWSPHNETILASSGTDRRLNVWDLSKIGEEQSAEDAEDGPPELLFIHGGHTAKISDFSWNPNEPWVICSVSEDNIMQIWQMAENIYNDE

[2] = biological target: T1, RbAp46 (pRB-associated protein p46), …; experiment: SPR; RbAp46 crosslinked to a CM5 chip, N-terminal histone H4 peptide as analyte; 10 mM HEPES (pH 7.4), 150 mM NaCl, 0.0005% (v/v) Surfactant P20; conditions: both partners purified

Kd [1]: 1100 nM
Kd [2]: ~1000 nM
B1: synthetic histone H4 peptide (residues 16-41) (peptide)
peptide: not shown
notes: histone H4 residues 16-41; also called N-terminal histone H4 peptide; H4(16-41); source: synthetic peptide
